Source: US20130209454A1

What was measured:
Test in all cases: cell-based or functional assay
[1] = target: HIV-1 Env of strain 6811.v7.c18 (HIV-1)
[2] = target: HIV-1 Env of strain REJO4541.67 (HIV-1)
[3] = target: HIV-1 Env of strain PVO.4 (HIV-1)
[4] = target: HIV-1 Env of strain 0815.v3.c3 (HIV-1)
[5] = target: HIV-1 Env of strain CAP210.2.00.E8 (HIV-1)
[6] = target: HIV-1 Env of strain ZM53M.PB12 (HIV-1)
[7] = target: HIV-1 Env of strain T278-50 (HIV-1)
[8] = target: HIV-1 Env of strain ZM247v1(Rev-) (HIV-1)
[9] = target: HIV-1 Env of strain 1056_10_TA11_1826 (HIV-1)
[10] = target: HIV-1 Env of strain CNE20 (HIV-1)
[11] = target: HIV-1 Env of strain WEAU_d15_410_787 (HIV-1)
[12] = target: HIV-1 Env of strain Du156.12 (HIV-1)
[13] = target: HIV-1 Env of strain ZM214M.PL15 (HIV-1)
[14] = target: HIV-1 Env of strain ZM109F.PB4 (HIV-1)
[15] = target: HIV-1 Env of strain P0402_c2_11 (HIV-1)
[16] = target: HIV-1 Env of strain CNE58 (HIV-1)
[17] = target: HIV-1 Env of strain Ce2010_F5 (HIV-1)
[18] = target: HIV-1 Env of strain Q769.d22 (HIV-1)
[19] = target: HIV-1 Env of strain CAAN5342.A2 (HIV-1)
[20] = target: HIV-1 Env of strain T255-34 (HIV-1)
[21] = target: HIV-1 Env of strain Ce0682_E4 (HIV-1)
[22] = target: HIV-1 Env of strain 3415.v1.c1 (HIV-1)
[23] = target: HIV-1 Env of strain RHPA4259.7 (HIV-1)
[24] = target: HIV-1 Env of strain ZM135M.PL10a (HIV-1)
[25] = target: HIV-1 Env of strain 928-28 (HIV-1)
[26] = target: HIV-1 strain X1254_c3 envelope (gp120) (HIV-1)
[27] = target: HIV-1 strain RHPA4259.7 envelope (gp120) (HIV-1)
[28] = target: HIV-1 strain 1054_07_TC4_1499 envelope (gp120) (HIV-1)
[29] = target: HIV-1 strain T251-18 envelope (gp120) (HIV-1)
[30] = target: HIV-1 Env of strain 6545.v4.cl (HIV-1)
[31] = target: HIV-1 strain QH0692.42 envelope (gp120) (HIV-1)
[32] = target: HIV-1 strain P1981_C5_3 envelope (gp120) (HIV-1)
[33] = target: HIV-1 Env of strain 703357.C02 (HIV-1)
[34] = target: HIV-1 strain 3817.v2.c59 envelope (gp120) (HIV-1)
[35] = target: HIV-1 strain 6540.v4.c1 envelope (gp120) (HIV-1)
[36] = target: HIV-1 strain CNE53 envelope (gp120) (HIV-1)
[37] = target: HIV-1 strain Q461.e2 envelope (gp120) (HIV-1)
[38] = target: HIV-1 strain 3415.v1.c1 envelope (gp120) (HIV-1)
[39] = target: HIV-1 strain CNE21 envelope (gp120) (HIV-1)
[40] = target: HIV-1 strain Du422.1 envelope (gp120) (HIV-1)
[41] = target: HIV-1 strain REJO4541.67 envelope (gp120) (HIV-1)
[42] = target: HIV-1 strain CAP45.2.00.G3 envelope (gp120) (HIV-1)
[43] = target: HIV-1 strain T278-50 envelope (gp120) (HIV-1)
[44] = target: HIV-1 strain ZM214M.PL15 envelope (gp120) (HIV-1)
[45] = target: HIV-1 strain Ce703010054_2A2 envelope (gp120) (HIV-1)
[46] = target: HIV-1 strain C2101.c01 envelope (gp120) (HIV-1)
[47] = target: HIV-1 strain CNE58 envelope (gp120) (HIV-1)
[48] = target: HIV-1 strain C1080.c03 envelope (gp120) (HIV-1)
[49] = target: HIV-1 strain PVO.4 envelope (gp120) (HIV-1)
[50] = target: HIV-1 strain Ce0393_C3 envelope (gp120) (HIV-1)

B1: NIH45-46^G54W (antibody, V domains shown)
VH: QVRLSQSGGQMKKPGESMRLSCRASGYEFLNCPINWIRLAPGRRPEWMGWLKPRWGAVNYARKFQGRVTMTRDVYSDTAFLELRSLTSDDTAVYFCTRGKYCTARDYYNWDFEHWGRGAPVTVSS
VL: EIVLTQSPATLSLSPGETAIISCRTSQSGSLAWYQQRPGQAPRLVIYSGSTRAAGIPDRFSGSRWGADYNLSISNLESGDFGVYYCQQYEFFGQGTKVQVDI
IC50, pseudovirus neutralization [1]: 1 ng/mL
IC50, pseudovirus neutralization [2]: 2 ng/mL
IC50, pseudovirus neutralization [3]: 0.05 µg/mL
IC50, pseudovirus neutralization [4]: 1 ng/mL
IC50, pseudovirus neutralization [5]: > 50 µg/mL
IC50, pseudovirus neutralization [6]: 0.04 µg/mL
IC50, pseudovirus neutralization [7]: > 50 µg/mL
IC50, pseudovirus neutralization [8]: 0.32 µg/mL
IC50, pseudovirus neutralization [9]: 0.024 µg/mL
IC50, pseudovirus neutralization [10]: 0.04 µg/mL
IC50, pseudovirus neutralization [11]: 1 ng/mL
IC50, pseudovirus neutralization [12]: 1 ng/mL
IC50, pseudovirus neutralization [13]: 0.03 µg/mL
IC50, pseudovirus neutralization [14]: 2 ng/mL
IC50, pseudovirus neutralization [15]: 3 ng/mL
IC50, pseudovirus neutralization [16]: 0.02 µg/mL
IC50, pseudovirus neutralization [17]: 0.038 µg/mL
IC50, pseudovirus neutralization [18]: 1 ng/mL
IC50, pseudovirus neutralization [19]: 0.07 µg/mL
IC50, pseudovirus neutralization [20]: 1 ng/mL
IC50, pseudovirus neutralization [21]: 0.01 µg/mL
IC50, pseudovirus neutralization [22]: 1 ng/mL
IC50, pseudovirus neutralization [23]: 1 ng/mL
IC50, pseudovirus neutralization [24]: 0.04 µg/mL
IC50, pseudovirus neutralization [25]: 0.06 µg/mL

B2: NIH45-46^G54W IgG (antibody, name in Kabat numbering, V domains shown)
VH: B1 VH
VL: B1 VL
neutralization IC50 [1]: < 1 ng/mL
neutralization IC80 [26]: 0.018 µg/mL
neutralization IC50 [2]: 2 ng/mL
neutralization IC50 [3]: 0.05 µg/mL
neutralization IC80 [27]: 7 ng/mL
neutralization IC80 [28]: 0.165 µg/mL
neutralization IC50 [4]: < 1 ng/mL
neutralization IC50 [5]: > 50 µg/mL
neutralization IC80 [29]: 0.92 µg/mL
neutralization IC50 [30]: 18.9 µg/mL
neutralization IC50 [6]: 0.04 µg/mL
neutralization IC50 [7]: > 50 µg/mL
neutralization IC50 [8]: 0.32 µg/mL
neutralization IC50 [9]: 0.024 µg/mL
neutralization IC80 [31]: 1.12 µg/mL
neutralization IC80 [32]: 0.07 µg/mL
neutralization IC50 [10]: 0.04 µg/mL
neutralization IC50 [11]: < 1 ng/mL
neutralization IC50 [12]: < 1 ng/mL
neutralization IC50 [33]: 3.43 µg/mL
neutralization IC80 [34]: > 50 µg/mL
neutralization IC80 [35]: > 50 µg/mL
neutralization IC50 [13]: 0.03 µg/mL
neutralization IC50 [14]: 2 ng/mL
neutralization IC80 [36]: 5 ng/mL
neutralization IC50 [15]: 3 ng/mL
neutralization IC80 [37]: 0.091 µg/mL
neutralization IC80 [38]: 0.023 µg/mL
neutralization IC50 [16]: 0.02 µg/mL
neutralization IC80 [39]: 0.16 µg/mL
neutralization IC80 [40]: > 50 µg/mL
neutralization IC80 [41]: 0.013 µg/mL
neutralization IC80 [42]: > 50 µg/mL
neutralization IC80 [43]: > 50 µg/mL
neutralization IC80 [44]: 0.15 µg/mL
neutralization IC80 [45]: 0.077 µg/mL
neutralization IC50 [17]: 0.038 µg/mL
neutralization IC80 [46]: 0.17 µg/mL
neutralization IC80 [47]: 0.05 µg/mL
neutralization IC50 [18]: < 1 ng/mL
neutralization IC50 [19]: 0.07 µg/mL
neutralization IC80 [48]: 0.91 µg/mL
improvement of neutralization potency over NIH45-46 [20]: > 700 fold
neutralization IC50 [20]: < 1 ng/mL
neutralization IC50 [21]: 0.01 µg/mL
neutralization IC80 [49]: 0.16 µg/mL
neutralization IC50 [22]: < 1 ng/mL
neutralization IC80 [50]: 0.089 µg/mL
neutralization IC50 [23]: < 1 ng/mL
neutralization IC50 [24]: 0.04 µg/mL
neutralization IC50 [25]: 0.06 µg/mL
